One test addresses T1, UBQLN2 (UniProt Q9UHD9 1-624).
T1 construct: UBQLN2 full-length construct; Phase separates into droplets at 37 °C with 200 mM NaCl; also called UBQLN2 full-length; source: E. coli BL21 (DE3), purified (glutathione sepharose, PreScission cleavage, SEC); not shown: GST, N-terminal, cleaved
As to the kind of experiment: recruitment to phase-separated droplets (confocal fluorescence microscopy, in vitro); 50 µM UBQLN2 construct with 25 µM AZUL-mEGFP or EGFP in 20 mM NaPO4, 200 mM NaCl, 2.5 µM ZnSO4 (pH 6.8) at 37 °C. To be noted: both partners purified.

Another test addresses T2, E6AP AZUL (UniProt Q05086 24-87).
T2 construct: AZUL domain of E6AP/UBE3A; Used unlabeled or 15N-labeled; source: expressed and purified as described previously (Buel et al., 2020)
T2 sequence: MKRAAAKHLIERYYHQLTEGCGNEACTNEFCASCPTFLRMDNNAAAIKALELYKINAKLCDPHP
Kind of test: NMR titration; unlabeled UBQLN1 constructs added to 0.05 mM 15N-E6AP AZUL; 1H-15N HSQC; Buffer E (10 mM MOPS pH 6.5, 50 mM NaCl, 5 mM DTT, 10 μM zinc sulfate), 25 °C. To be noted: both partners purified.

Results on two molecules are retold here after publication doi:10.1101/2022.09.29.510132 (bioRxiv, 2022).

B1: AZUL-mEGFP (domain or fragment, UniProt Q05086 24-87, looked up)
chain: T2 sequence
notes: E6AP isoform II residues 24-87 (AZUL); AZUL and mEGFP are separated by a TEV protease cut site; A206K is numbered relative to avGFP (A207K relative to EGFP); also called E6AP isoform II 24-87 with a C-terminal mEGFP; source: E. coli BL21 (DE3), purified (glutathione sepharose, PreScission cleavage, SEC); not shown: GST, N-terminal, cleaved; mEGFP (EGFP with A206K), C-terminal, kept
As for B1, in the test with UBQLN2, the binding result is on record as “binds”.

B2: UBQLN1 UBA (541-589) (domain or fragment, UniProt Q9UMX0 541-589, looked up)
chain: QNPEVRFQQQLEQLSAMGFLNREANLQALIATGGDINAAIERLLGSQPS
notes: The construct contains a tyrosine residue in the tag to enable quantitation at A280; source: E. coli BL21 (DE3), purified (glutathione sepharose, PreScission cleavage, SEC); not shown: GST, N-terminal, cleaved
Take B2: the binding result with E6AP AZUL is given as “binds”.
